Reference: patent US20220112547, “BIOCHEMICAL REACTION METHODS AND REAGENTS COMPRISING INTRINSICALLY DISORDERED REGIONS” (Biocrucible Limited, published 2022)

What was measured:
Gp32-HIS2 = target: T1, Gp32-HIS2 (phage vB_EcoM_NBG1); assay: oligo enriched in phase-separated particles; MgOAc, RPA mix, no crowding agent; settings: tags: C-terminal HIS2 IDR (human OTX1); label: FAM
T1 chain: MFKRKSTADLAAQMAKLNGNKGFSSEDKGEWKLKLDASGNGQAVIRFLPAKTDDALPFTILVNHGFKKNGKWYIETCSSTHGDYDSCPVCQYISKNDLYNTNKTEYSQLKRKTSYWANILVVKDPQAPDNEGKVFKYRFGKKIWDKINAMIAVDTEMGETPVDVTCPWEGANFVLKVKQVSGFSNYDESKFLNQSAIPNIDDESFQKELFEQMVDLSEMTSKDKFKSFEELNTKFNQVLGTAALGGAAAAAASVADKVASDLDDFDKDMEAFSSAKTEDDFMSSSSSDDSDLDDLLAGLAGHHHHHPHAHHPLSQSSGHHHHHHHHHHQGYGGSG
Protocol: (§1) Reactions were set up according to the following protocol. A reaction mixture was created with the following components: 25 mM Tris HCl pH 8.3, 7.5 mM KOAc, 1 mM DTT, 2.5 mM ATP, 20 mM phosphocreatine, 1 μM creatine kinase, 1 mM dNTPs, 0.2 μM forward primer, 0.2 μM reverse primer, 0.516 μM probe, 22.6 μM Gp32-HIS2 fusion, 8.4 μM UvsX, 15.3 μM UvsY, 0.135 μM S. aureus DNA polymerase (large subunit), and 0.27 μM Exonuclease III. Gp32-His2, UvsX, UvsY, polymerase and Exonuclease III were prepared as a premix before being added in one step to the mixture of primer, buffer, nucleotides and creatine kinase. The total volume was 44 Once combined, 6 μl of 280 mM MgOAc was added to the mixture to achieve a final concentration of 33 mM. 10 μl of the reaction mix was then transferred to a C-Chip haemocytometer slide which was placed on a heated stage set to 39° C. before being observed under the microscope where images were taken under bright field light conditions and fluorescence conditions.

Gp32-HRP1 = target: T2, Gp32-HRP1 (phage vB_EcoM_NBG1); assay: as above; settings: tags: C-terminal HRP1 IDR (S. cerevisiae Hrp1) and 7xHis; label: FAM
T2 chain: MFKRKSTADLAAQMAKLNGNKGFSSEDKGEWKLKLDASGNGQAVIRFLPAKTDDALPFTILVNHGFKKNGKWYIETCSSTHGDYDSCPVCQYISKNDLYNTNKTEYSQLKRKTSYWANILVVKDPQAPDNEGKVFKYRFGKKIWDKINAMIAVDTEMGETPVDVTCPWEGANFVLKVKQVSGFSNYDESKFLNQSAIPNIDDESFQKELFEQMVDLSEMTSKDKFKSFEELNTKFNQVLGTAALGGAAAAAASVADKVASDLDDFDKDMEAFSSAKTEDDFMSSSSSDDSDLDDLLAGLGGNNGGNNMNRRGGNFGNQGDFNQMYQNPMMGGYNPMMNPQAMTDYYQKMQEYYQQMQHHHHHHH
Protocol: as §1, with “Gp32-HRP” for “Gp32-HIS2”, “Gp32,” for “Gp32-His2,”

## CCGCAATGGTGCACTCTCAGTACAATCTGCTCTGATG (ssDNA) [FAM oligo probe]
Gp32-HIS2
  binding result: binds
Gp32-HRP1
  binding result: binds
